Data reported in paper PMC13078889.

Tests used:
[1] = system: LARP6; experiment: TR-FRET competition; details: vs DIG-labeled A1 RNA; not in the material
[2] = system: LARP6; experiment: ITC; details: not in the material

Substance | IC50 [1] [nM] | Kd ([2]; only stated as higher Kd than COL1A1-TIS, value in Table 2 not in material) [nM] | Kd [2] [nM]
A1 RNA (COL1A1 5'SL, 48 nt) | 6.84 | – | –
COL1A1-5'SL (A1), ITC | – | > 400 | –
COL1A1-TIS | 2.71 | – | 400
